Here are results for four molecules from patent EP4477666A1 (Max-Planck-Gesellschaft zur Förderung der Wissenschaften …, dated 2024).

In assay [1] the target is T1, human Nup358 (human, UniProt P49792 1-145).
T1 construct: The stainings were on whole NPCs of HeLa cells
T1 sequence (looked up): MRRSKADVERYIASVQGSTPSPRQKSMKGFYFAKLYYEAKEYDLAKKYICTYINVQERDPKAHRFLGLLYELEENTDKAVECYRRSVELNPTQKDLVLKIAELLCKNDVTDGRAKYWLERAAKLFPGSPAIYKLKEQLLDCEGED
Kind of assay: Table 1, target and cross-reactivity (immunofluorescence, Figure 1).

Assay [2] deals with T2, Xenopus Nup133 β-propeller (Xenopus).
T2 construct: domain: β-propeller; also called Xenopus Nup133 beta propeller; Xenopus propeller
Kind of assay: BLI (Octet Red96), biotinylated VHH on streptavidin sensors, 40 nM propeller in solution. Background: In BLI a coated tip is dipped into the sample, and binding shifts an interference pattern.

Assay [3] concerns the target T3, human Nup133 β-propeller (human, UniProt Q8WUM0 67-514, limits assumed).
T3 construct: domain: β-propeller; also called human Nup133 beta propeller; human propeller
T3 sequence (looked up): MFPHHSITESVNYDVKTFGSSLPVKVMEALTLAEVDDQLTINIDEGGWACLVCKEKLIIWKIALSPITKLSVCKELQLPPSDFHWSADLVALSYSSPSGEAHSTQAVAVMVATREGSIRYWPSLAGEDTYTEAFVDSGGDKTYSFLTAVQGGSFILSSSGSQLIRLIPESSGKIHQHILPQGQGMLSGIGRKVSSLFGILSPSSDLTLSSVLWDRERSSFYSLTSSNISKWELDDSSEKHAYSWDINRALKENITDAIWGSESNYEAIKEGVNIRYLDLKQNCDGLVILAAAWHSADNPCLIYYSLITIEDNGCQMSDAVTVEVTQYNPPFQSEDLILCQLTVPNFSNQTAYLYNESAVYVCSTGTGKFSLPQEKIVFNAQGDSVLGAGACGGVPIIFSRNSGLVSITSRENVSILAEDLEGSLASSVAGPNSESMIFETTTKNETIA
The assay is described as above.

Assay [4] has as its target T4, human Nup133 in nuclear pore complexes of HeLa cells (human, UniProt Q8WUM0 1-1156).
T4 construct: whole, on cells; Endogenous protein inside permeabilized HeLa cells, as part of assembled NPCs; not on the cell surface; also called human NPCs
T4 sequence (looked up): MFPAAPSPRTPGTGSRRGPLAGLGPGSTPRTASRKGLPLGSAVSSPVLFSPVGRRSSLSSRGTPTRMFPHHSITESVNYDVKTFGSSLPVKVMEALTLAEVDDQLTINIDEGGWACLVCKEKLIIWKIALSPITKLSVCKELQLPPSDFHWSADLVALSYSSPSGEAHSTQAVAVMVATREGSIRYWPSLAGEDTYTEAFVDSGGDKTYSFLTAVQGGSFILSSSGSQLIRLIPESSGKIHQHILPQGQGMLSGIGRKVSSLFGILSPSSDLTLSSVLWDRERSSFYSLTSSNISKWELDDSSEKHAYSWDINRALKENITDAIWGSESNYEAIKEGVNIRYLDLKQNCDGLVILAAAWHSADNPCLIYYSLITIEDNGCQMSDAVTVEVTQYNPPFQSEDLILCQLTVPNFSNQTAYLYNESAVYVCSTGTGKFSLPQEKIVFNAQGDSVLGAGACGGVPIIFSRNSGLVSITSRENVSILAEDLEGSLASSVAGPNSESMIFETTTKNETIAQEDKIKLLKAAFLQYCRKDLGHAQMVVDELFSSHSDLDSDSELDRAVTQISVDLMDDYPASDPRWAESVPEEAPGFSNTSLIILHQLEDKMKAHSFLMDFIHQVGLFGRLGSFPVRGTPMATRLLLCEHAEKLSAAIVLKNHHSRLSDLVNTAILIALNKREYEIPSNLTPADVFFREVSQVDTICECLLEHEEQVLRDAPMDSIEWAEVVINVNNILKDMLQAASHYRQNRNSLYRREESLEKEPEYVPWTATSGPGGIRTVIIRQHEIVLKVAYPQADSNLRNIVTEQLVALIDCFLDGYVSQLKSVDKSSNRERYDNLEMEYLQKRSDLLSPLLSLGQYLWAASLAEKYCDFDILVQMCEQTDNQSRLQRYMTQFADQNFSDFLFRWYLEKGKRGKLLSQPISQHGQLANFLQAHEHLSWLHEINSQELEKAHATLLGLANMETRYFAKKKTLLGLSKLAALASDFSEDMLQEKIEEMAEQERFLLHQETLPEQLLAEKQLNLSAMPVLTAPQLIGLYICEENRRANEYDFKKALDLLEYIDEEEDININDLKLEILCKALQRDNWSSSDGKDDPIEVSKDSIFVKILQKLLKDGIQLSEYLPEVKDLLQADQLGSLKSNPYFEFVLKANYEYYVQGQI
Kind of assay: immunofluorescence of HeLa cells with fluorophore-labelled VHH (Figures 1 and 2).

What is called Kd is the concentration at which binding is half-saturated. A lower Kd goes with tighter binding.

B1: xhNup358-Nb2t (VHH)
VHH: QVQLVESGGGLVQPGGSLRLSCAASGRPLSDYAMGWFRQAPGKEREFVAAISWKGGETFYAGSVKGRFTISRDDAKNSLYLQMNNLKLEDTAEYSCAAVLGSPHYSGTHYYPAEYDYWGQGTQVTVSS
notes: For staining the VHHs carried two ectopic cysteines (N- and C-termini) labelled with fluorophore maleimide
Take B1: the binding result in assay [1] is “binds”.

B2: KG1D08, biotinylated, reduced form (structural cysteines not disulfide-bonded) (VHH)
VHH: QVQLVESGGGLVQAGGSLRLSCAASGRSFRGNIMAWFRQTPGKERLFVASITGSGYTSYENSVKGRFTISRDSARDTVDLQMTTLAPEDTAVYYCAGRFRGGHNRMPDAYEYWGQGTQVTVSS
modifications: Biotin-PEG11-maleimide on the two additional cysteines at N- and C-terminus; structural cysteines reduced ; Two additional ectopic cysteines at the N- and C-terminus, not in the letters, each carry Biotin-PEG11-maleimide. Struct [CUT]
notes: Expressed in the cytoplasm of E. coli NEB Express; also called reduced KG1D08; not shown: The short N- and C-terminal extensions that carry the two ectopic, biotinylated cysteines
Regarding B2, the Kd in assay [2] was below 0.01 nM; in assay [3] it was around 2 nM.

B3: KG1D08 (VHH)
VHH: B2 VHH
notes: also called anti-Nup133 VHH KG1D08
For the molecule B3, in assay [4], the binding result is “binds”.

B4: KG1D08, biotinylated, post-production disulfide-bridged form (VHH)
VHH: B2 VHH
modifications: Biotin-PEG11-maleimide on the two additional cysteines at N- and C-terminus; structural cysteines quantitatively oxidized to the intramolecular disulfide bond ; Two additional ectopic cysteines at the N- and C-terminus, not in the letters, each carry Biotin-PEG11-maleimide. Struct [CUT]
notes: Same preparation as the reduced form, then treated with 2 mM GSSG and 1.5 µM each DsbA, DsbC, DsbG for 5 minutes at 52°C (45 minutes heat up); also called KG1D08 with post-production disulfide-bonding; disulfide-stabilized VHH; not shown: The short N- and C-terminal extensions that carry the two ectopic, biotinylated cysteines
With B4, the Kd in assay [2] was below 0.01 nM; in assay [3], around 2 nM.
